# T1: AlkG (rubredoxin-2) (Pseudomonas putida, UniProt Q9WWW4)
# T1 chain: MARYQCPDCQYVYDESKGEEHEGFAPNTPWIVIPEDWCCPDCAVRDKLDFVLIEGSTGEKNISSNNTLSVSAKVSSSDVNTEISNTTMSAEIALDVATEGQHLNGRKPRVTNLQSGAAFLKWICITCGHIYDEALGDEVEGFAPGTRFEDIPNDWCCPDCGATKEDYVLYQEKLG
# Target: T1, AlkG (rubredoxin-2)
# Test: electrochemical activity titration on AlkG-immobilized screen-printed carbon electrode (one-site and two-site binding model fits)
binder,measurement,value
AlkB (protein) MNGKSSVLDSAPEYVDKKKYFWILSTFWPATPMIGIWLANETGWGIFYGLVLAVWYGVLPLLDAMFGEDFNNPPEEVVEKLEKERYYRVLTYLTVPMHYAALIVSAWWVGTQSMSWFEIVALALSLGIVNGLALNTGHELGHKKEAFDRWMAKIVLAVVGYGHFFIEHNKGHHRDVATPMDPATSRMGENIYKFSTREIPGAFRRAWGLEEQRLSRRGQSVWSFDNEILQPMVITVVLYTLLLAFFGPKMLVFLPIQMAFGWWQLTSANYIEHYGLLREKMADGRYEHQKPHHSWNSNHIVSNLVLFHLQRHSDHHAHPTRSYQSLRDFPGLPALPTGYPGAFLMAMIPQWFRSVMDPKVVNWANGDLSKIQIEDSMRAEYIKKFTHNVGADDKRGATAVAS,Kd,268 µM

# Source: PMC5566439 (2017)
